We go through one molecule from US20090004198A1 (published 2009).

The assay has as its target T1, GST-HCMV-AD1 fusion protein (human cytomegalovirus (HCMV), UniProt P06473 552-635).
T1 construct: also called GST fused HCMV-AD1; not shown: GST (glutathione S-transferase) fusion partner
The assay is described as follows: BIAcore (SPR); antigen fixed to the sensor chip, antibody as analyte; GST protein as control.

T1 sequence (P06473 552-635 limits assumed): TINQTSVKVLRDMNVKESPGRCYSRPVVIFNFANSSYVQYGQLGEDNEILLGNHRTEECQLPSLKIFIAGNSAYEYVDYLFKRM

B1: anti-HCMV antibody (G3D No. 9) (antibody, human IgG1, kappa, V domains shown)
VH: QVQLVESGGGMVQPGKSLRLSCAASGFTFSSYGMHWVRQAPGRGLEWVAIIWYDGDNTWYADSVKGRITISRDNSKNMLYLQMDSLRVEDTALYYCVRGGLGYFNGWDVDHWGQGTLVTVSS
VL: DVVMTQSPLSLPVTLGQPASISCRSSESLVYSDGNTYLNWFQQRPGQSPRRLISKVSNRDSGVPDRFSGSGSGTDFTLKISRVEAEDVGVYYCMQGSHWPPYTFGQGTKLEIKR
notes: also called G3D No. 9 antibody; anti-HCMV monoclonal antibody
With B1, the Kd (usually the free concentration of one partner at which half of the binding sites on the other are occupied at equilibrium, for simple one-to-one binding) turned out to be 0.0116 nM. That is a picomolar value.
